Test results as given in patent US8841421B2, “S100A9 interaction screening method” (Active Biotech, AB, priority 2007, dated 2014).

Tests used:
[1] = target: T1, S100A9 binding to immobilized human TLR4/MD-2 complex (Homo sapiens, UniProt P06702); experiment: Biacore competition assay: displacement of S100A9 binding to immobilized TLR4/MD-2; conditions: sigmoidal dose-response (variable slope) fit
T1 construct: made in house; host or cells: E. coli
T1 sequence (P06702 1-114): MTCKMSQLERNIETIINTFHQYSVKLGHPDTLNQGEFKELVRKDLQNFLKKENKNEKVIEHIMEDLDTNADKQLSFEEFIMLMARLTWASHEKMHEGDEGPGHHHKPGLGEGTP
Experimental: Sensograms from top to bottom represent: S100A9 without and with 7.8125, 15.625, 31.25, 62.5, 125, 250, 500 and 1000 μM compound A as competitor. In (B), binding data is plotted as an inhibition curve. […] Arrows in (A) indicate start of the association phase (1), i.e. injection of S100A9±competitor, and dissociation phase (2), where running buffer is pumped over the surface. Injection time, flow rate and regeneration conditions were as in FIG. 1. HBS-P containing 1 mM CaCl2 and 10 μM ZnCl2 (Robinson et al. 2002) was used as running and sample buffer.
Binding analysis was performed using the “surface plasmon resonance” (SPR) technology with a Biacore 3000™ system. This technology allows analysis of an interaction between proteins and small molecules in a real-time and label-free manner. A protein or low-molecular weight compound is injected over a surface (a CM5 sensor chip) with a covalently coupled ligand and the signal produced, expressed as resonance units (RU), is directly proportional to the number and mass of the molecule interacting with the ligand on the surface. […]
(§1) Recombinant S100A9, expressed as the full-length sequence of native protein in E. coli was obtained using a four-step purification protocol. […] Buffer was changed to HBS-P using the Fast Protein Desalting Spin Columns and concentration determined in the BCA protein assay from Pierce with bovine albumin as standard. […]

[2] = target: T2, S100A9 binding to immobilized RAGE (Homo sapiens, UniProt P06702); experiment: Biacore competition assay: displacement of S100A9 binding to immobilized RAGE; conditions: for IC50, displacement of S100A9 binding to RAGE: 200 nM S100A9, log-logit plot, linear regression
T2 construct: made in house; host or cells: E. coli
T2 sequence (P06702 1-114): T1 sequence (P06702 1-114)
Experimental: Sensorgrams from top to bottom represent: S100A9 without and with 15.625, 31.25, 62.5, 125, 250, 500 and 1000 μM compound A as competitor and from sample buffer without S100A9 and competitor. In (B), binding data is plotted as an inhibition curve (♦) and the response for S100A9 in the absence of competitor (dotted line). In (C), binding data is plotted after log-logit transformation. […] Arrows in (A) indicate start of the association phase (1), i.e. injection of S100A9±competitor, and dissociation phase (2), where running buffer is pumped over the surface. Injection time, flow rate and regeneration conditions were as in FIG. 1.
Binding analysis was performed using the “surface plasmon resonance” (SPR) technology with a Biacore 3000™ system. This technology allows analysis of an interaction between proteins and small molecules in a real-time and label-free manner. A protein or low-molecular weight compound is injected over a surface (a CM5 sensor chip) with a covalently coupled ligand and the signal produced, expressed as resonance units (RU), is directly proportional to the number and mass of the molecule interacting with the ligand on the surface. Immobilization, regeneration scouting, surface performance tests and binding studies were conducted basically according to the instructions by the manufacturer. Kinetic evaluation of binding data was carried using the BIAevaluation Software Version 3.2 (Biacore AB). Optimization of conditions for immobilization and binding analysis is carried out for each interaction to be studied. […]
Recombinant human RAGE was obtained from R&D Systems (cat. No. 1145-RG) as a fusion protein of the extracellular domain of RAGE, comprising a.a. […] The chimeric protein was expressed in the mouse myleoma cell line NSO as a disulfide-linked homo-dimeric protein with a calculated molecular mass of 61 kDa. […]
Recombinant S100A9, expressed as the full-length sequence of native protein in E. coli was obtained using a four-step purification protocol. […]

human S100A9 = target: T3, human S100A9 (Homo sapiens, UniProt P06702); experiment: Biacore competition assay: S100A9 binding to immobilized amino-linked Compound A; conditions: sigmoidal dose-response (variable slope) fit
T3 construct: made in house; host or cells: E. coli
T3 sequence (P06702 1-114): T1 sequence (P06702 1-114)
Experimental: The anti-S100A9 mAb 43/8 ability to block the binding of human S100A9 to amino-linked Compound A was measured by BIACORE™ direct binding assay. The assay was performed by coating amino-linked Compound A on a CM5 chip using standard amine coupling. S100A9 at 100 nM was injected over immobilized Compound A in the absence or presence of mAb 43/8 for 3 min at a flow rate of 30 μl/min in sample buffer (HBS-P buffer containing 1 mM Ca^2+ and […]) (1; association phase), followed by injection of sample buffer (2; dissociation phase).
Responses at late association phase, obtained after injection of 100 nM S100A9, pre-incubated for at least 1 h at room temperature ±12.5-500 nM monoclonal anti-S100A9 antibody, over immobilized Compound A were plotted versus concentration of anti-S100A9 antibody.
Samples were injected for 3 min at 30 μl/min in HBS-P buffer over amine coupled RAGE,TLR4/MD-2 and Compound A. Binding +/− competitor was calculated as response at lateassociation phase or by fit of sensorgrams to a 1:1 Langmuir model. ICso values were calculated by fitting data to a sigmoidal dose-response (variable slope) model in Graph-Pad Prism.

immobilized RAGE = target: T4, immobilized RAGE (Homo sapiens, UniProt Q15109); experiment: Binding of S100 proteins to immobilized RAGE (Biacore); conditions: 200 nM protein
T4 construct: the extracellular domain of RAGE, comprising a.a; 1-344; purchased R&D Systems 1145-RG; host or cells: mouse myeloma cell line NS0
Experimental: Responses were obtained as Req values after fit of data to a 1:1 binding model or as the signal at late association phase (t˜235 s). Experimental conditions were as in FIG. 1. Signals were not corrected for mass contribution.
In vivo, S100A9 usually forms hetero-dimeric complexes with S100A8.
(§2) Binding analysis was performed using the “surface plasmon resonance” (SPR) technology with a Biacore 3000™ system. This technology allows analysis of an interaction between proteins and small molecules in a real-time and label-free manner. A protein or low-molecular weight compound is injected over a surface (a CM5 sensor chip) with a covalently coupled ligand and the signal produced, expressed as resonance units (RU), is directly proportional to the number and mass of the molecule interacting with the ligand on the surface. Immobilization, regeneration scouting, surface performance tests and binding studies were conducted basically according to the instructions by the manufacturer. Kinetic evaluation of binding data was carried using the BIAevaluation Software Version 3.2 (Biacore AB). Optimization of conditions for immobilization and binding analysis is carried out for each interaction to be studied. A biosensor analysis cycle consists of: (i) injection of S100A9 over the RAGE surface for 3 min (association phase) or (i) injection of S100A9 over the TLR4/MD-2 surfaces, in the absence or presence of 100 ng/mL LPS, for 3 min (association phase); (ii) injection of running buffer for 2.5 min (dissociation phase); (iii) injection of a 30 s pulse of 10 mM glycine-HCl, pH 2.0-2.125 (regeneration phase); and (iv) injection of running buffer for 2 min (stabilization after regeneration) at a flow rate of 30 μl/min.
Recombinant human RAGE was obtained from R&D Systems (cat. No. 1145-RG) as a fusion protein of the extracellular domain of RAGE, comprising a.a. 1-344, and the Fc region of human IgG1 via a peptide linker. The chimeric protein was expressed in the mouse myleoma cell line NSO as a disulfide-linked homo-dimeric protein with a calculated molecular mass of 61 kDa. Prior to covalent coupling to the sensor chip, buffer was changed to a standard Biacore buffer (10 mM Hepes, 0.15 M NaCl, pH 7.4, containing 0.005% v/v Surfactant P20; HBS-P) using Fast Protein Desalting Micro-Spin Columns (Pierce). RAGE was diluted in an immobilization buffer shown to give sufficient pre-concentration and then covalently coupled using the “Aim at immobilization level” function in the Biacore Wizard to obtain various coupling densities. Activity of immobilized RAGE was tested by injecting a specific anti-human RAGE monoclonal antibody over the surface. Due to extensive glycosylation of RAGE relative to that of the Fc domain and a higher mass of the latter, it was also assumed that chimeric RAGE/Fc will be coupled predominantly via the Fc domain and result in a semi-oriented coupling to the sensor chip. HBS-P, with a final concentration of 1 mM CaCl2 and 10 μM ZnCl2, was used as sample and running buffer throughout the study. For regeneration of the surface after each cycle, a pulse of 10 mM glycine-HCl, pH 2.125, was used. To determine optimal zinc concentration for binding of S100A9 protein to RAGE, the interaction was allowed to take place at a fixed calcium concentration (1 mM) and with the zinc concentration titrated from zero to ten μM.

human TLR4/MD-2 = target: T5, human TLR4/MD-2 (Homo sapiens, UniProt O00206+Q9Y6Y9); experiment: Biacore direct binding of S100A9 to amine-coupled TLR4/MD-2; conditions: 1:1 Langmuir binding model
T5 construct: human TLR4 (Glu 24-Lys 631), and 10× histidines; human MD-2 (Glu 17-ASN 160), and 10× histidines; human CD33 signal peptide (Met 1-Ala 16) (N); purchased R&D Systems 3146-TN/CF; host or cells: mouse myeloma cell line NS0
Experimental: The TOLL-like receptor 4 was immobilized on the sensor chip. Binding to S100A9 was detected. […] Sensorgrams from bottom to top represent injection of sample buffer in the absence of S100A9, 100 and 200 nM S100A9 after subtraction of the signal in the reference flow cell. Injection time was 3 min at a flow rate of 30 μL/min and regeneration was performed with a 30 μl pulse of 3 mM EDTA in HBS-P buffer (HBS-EP) for 60 s. Arrows indicate injection of sample (1; association phase), running buffer (2; dissociation phase) and regeneration solution (3). HBS-P containing 1 mM CaCl2 and 10 μM ZnCl2 (Robinson et al. 2002) was used as running and sample buffer. An apparent dissociation constant of […], on- and off-rates of 3.9×10^4 l/Ms and 3.5×10^−4 l/s, and maximal binding at 1.8×10^3 RU were calculated after fitting data to a 1:1 Langmuir binding model (Chi2 6.8).
as §2
Recombinant human TLR4/MD-2 was obtained from R&D Systems (cat. no. 3146-TN/CF) as a non-covalently associated protein of the respective extracellular domains. […]
as §1

T5 sequence (O00206 24-631): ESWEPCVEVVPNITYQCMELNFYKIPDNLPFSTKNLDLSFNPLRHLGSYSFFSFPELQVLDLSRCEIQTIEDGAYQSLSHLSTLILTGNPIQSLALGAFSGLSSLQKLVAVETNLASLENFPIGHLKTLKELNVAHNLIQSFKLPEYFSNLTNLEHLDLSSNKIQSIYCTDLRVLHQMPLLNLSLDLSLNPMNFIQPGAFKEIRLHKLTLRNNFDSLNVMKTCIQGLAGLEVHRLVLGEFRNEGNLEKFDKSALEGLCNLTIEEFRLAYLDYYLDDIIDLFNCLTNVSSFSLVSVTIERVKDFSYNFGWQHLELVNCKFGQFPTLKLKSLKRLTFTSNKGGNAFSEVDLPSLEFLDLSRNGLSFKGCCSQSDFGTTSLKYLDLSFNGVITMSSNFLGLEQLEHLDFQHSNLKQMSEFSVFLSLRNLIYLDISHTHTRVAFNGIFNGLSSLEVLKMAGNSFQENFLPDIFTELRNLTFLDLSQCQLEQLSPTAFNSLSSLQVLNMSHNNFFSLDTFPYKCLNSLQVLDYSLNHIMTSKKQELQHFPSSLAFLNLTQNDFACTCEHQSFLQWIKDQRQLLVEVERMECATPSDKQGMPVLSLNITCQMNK
T5 sequence (Q9Y6Y9 17-160): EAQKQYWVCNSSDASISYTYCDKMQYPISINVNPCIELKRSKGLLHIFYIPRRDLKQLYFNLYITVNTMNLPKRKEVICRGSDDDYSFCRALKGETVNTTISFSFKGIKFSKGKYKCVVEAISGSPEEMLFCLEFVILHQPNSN
T4 sequence (Q15109 23-344): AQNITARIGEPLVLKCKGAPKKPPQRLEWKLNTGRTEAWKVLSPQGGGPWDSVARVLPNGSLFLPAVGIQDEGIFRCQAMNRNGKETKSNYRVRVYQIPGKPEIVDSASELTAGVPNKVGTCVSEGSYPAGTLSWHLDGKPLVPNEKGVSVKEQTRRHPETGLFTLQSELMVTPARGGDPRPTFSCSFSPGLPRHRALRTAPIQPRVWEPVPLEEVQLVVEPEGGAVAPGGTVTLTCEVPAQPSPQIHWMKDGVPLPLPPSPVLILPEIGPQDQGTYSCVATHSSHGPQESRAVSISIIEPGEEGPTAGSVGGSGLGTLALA

Molecule: COc1ccc(C2CNC(=O)C2)cc1OC1CCCC1 (racemic) [Rolipram, (+/−)-4-(3-cyclopentyloxy-4-methoxyphenyl)-2-pyrrolidone]
- IC50 [1]: 458 µM
- IC50 ([2]; sigmoidal dose-response (variable slope) fit): 399 µM
- IC50 (human S100A9): 873 µM

Molecule: S100A1: S100 protein, putative RAGE ligand [Compound S100A1]
- binding to RAGE (in words) (immobilized RAGE): weak or no binding

Molecule: S100A8/9 hetero-dimer: hetero-dimeric complex of S100A8 and S100A9
- binding to RAGE (in words) (immobilized RAGE): significantly lower binding

Molecule: S100A9: recombinant S100A9, full-length sequence of native protein expressed in E. coli; SEQ ID NO: 1 [Compound S100A9]
- maximal binding (human TLR4/MD-2): 1.8×10^3 RU
- off-rate (human TLR4/MD-2): 0.00035 L/s
- on-rate (human TLR4/MD-2): 3.9×10^4 l/Ms
- Kd (human TLR4/MD-2; read-out: apparent dissociation constant): 0.086 µM
- binding to RAGE relative to next group of RAGE binders (AnxII, S100A12, S100A8/9) (immobilized RAGE): more than 10 fold

Molecule: S100B: S100 protein, putative RAGE ligand [Compound S100B]
- binding to RAGE (in words) (immobilized RAGE): weak or no binding

Molecule: heparan sulfate
- IC50, displacement of S100A9 binding to RAGE [2]: 0.0257 µg/mL

Molecule: heparin
- IC50, displacement of S100A9 binding to RAGE [2]: 0.0404 µg/mL

B1: S100P: S100 protein, putative RAGE ligand (protein, UniProt P25815 1-95, looked up)
Protein S100-P: MTELETAMGMIIDVFSRYSGSEGSTQTLTKGELKVLMEKELPGFLQSGKDKDAVDKLLKDLDANGDAQVDFSEFIVFVAAITSACHKYFEKAGLK
- binding to RAGE (in words) (immobilized RAGE): weak or no binding

B2: S100A12: S100 protein, putative RAGE ligand; purified from human granulocytes (protein)
chain: TKLEEHLEGIVNIFHQYSVRKGHFDTLSKGELKQLLTKELANTIKNIKDKAVIDEIFQGLDANQDEQVDFQEFISLVAIALKAAHYHTHKE
- binding to RAGE (in words) (immobilized RAGE): weak or no binding
